From patent publication US6027877, “Use of immobilized mismatch binding protein for detection of mutations and polymorphisms, purification of amplified DNA samples and allele identification” (Gene Check, Inc.)
Changes are numbered by the printed parent chain.

Legend:
[1] = target: T1, MutS (Escherichia coli, UniProt P23909 P23909:1-853); test: competition; competition clearly visible with 50 ng against 5 ng biotinylated mismatch 30-mer; conditions: tags: adsorbed on nitrocellulose (0.45 um, Schleicher & Schuell); single G:T mismatch
T1 sequence: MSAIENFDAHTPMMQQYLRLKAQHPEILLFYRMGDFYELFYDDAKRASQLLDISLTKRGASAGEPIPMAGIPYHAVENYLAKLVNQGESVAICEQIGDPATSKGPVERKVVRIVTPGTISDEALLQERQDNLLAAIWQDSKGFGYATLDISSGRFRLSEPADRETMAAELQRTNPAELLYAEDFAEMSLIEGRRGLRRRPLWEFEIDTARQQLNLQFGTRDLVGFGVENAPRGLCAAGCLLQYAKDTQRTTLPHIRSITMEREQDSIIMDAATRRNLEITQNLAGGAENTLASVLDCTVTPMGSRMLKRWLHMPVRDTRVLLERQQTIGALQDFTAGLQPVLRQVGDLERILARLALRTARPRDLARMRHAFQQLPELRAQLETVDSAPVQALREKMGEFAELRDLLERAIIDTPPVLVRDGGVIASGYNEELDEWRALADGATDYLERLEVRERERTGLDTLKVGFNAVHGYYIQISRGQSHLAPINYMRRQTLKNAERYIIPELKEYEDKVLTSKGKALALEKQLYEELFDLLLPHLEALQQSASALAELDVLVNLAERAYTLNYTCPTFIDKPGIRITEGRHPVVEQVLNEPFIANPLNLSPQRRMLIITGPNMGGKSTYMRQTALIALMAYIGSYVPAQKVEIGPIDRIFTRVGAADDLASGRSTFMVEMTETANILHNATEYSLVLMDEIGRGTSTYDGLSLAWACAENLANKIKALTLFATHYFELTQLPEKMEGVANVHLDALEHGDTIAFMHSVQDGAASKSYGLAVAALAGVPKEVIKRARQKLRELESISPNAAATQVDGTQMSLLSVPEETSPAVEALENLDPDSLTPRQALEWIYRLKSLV
Experimental: (§1) Purified MBP, E. coli MutS, at a concentration of 0.5 μg/10 μl reaction buffer was spotted on the nitrocellulose paper in each well. The wells were incubated at room temperature, and the remaining liquid was pulled through with vacuum. Each well was washed twice with 100 μl reaction buffer by adding the solution to the well and then pouring it out. After the second wash, the remaining solution was pulled through the vacuum.
(§2) Biotinylated oligonucleotides, in 20 μl reaction buffer containing 1% BSA, were added to each well. After 30 minutes at room temperature, remaining liquid was poured out. Each well was washed with 5×100 μl reaction buffer by adding the solution to the well and then pouring it out. After the fifth wash, the remaining solution was pulled through by vacuum.
In competition studies, the DNA binding was as described above, except that a constant amount of biotinylated mismatch-containing oligonucleotide (5 ng) was mixed with varying amounts of unlabeled DNA, with or without a mismatch, and added to the wells.

[2] = target: T1, MutS; test: dot blot with immobilized MutS, streptavidin-HRP ECL; as little as 0.2 ng detected; 20 mM Tris pH 7.6, 5 mM MgCl2, 1% BSA, room temperature; conditions: tags: adsorbed on nitrocellulose (0.45 um, Schleicher & Schuell); single G:T mismatch
Experimental: as §1, §2
(§3) The presence of biotin was detected by its binding of Streptavidin. A 100 μl volume of Streptavidin-conjugated HRP (Pierce Chemicals) at a concentration of […] in reaction buffer +1% BSA was added to each well. After 2 hours at room temperature, the solution was poured out and each well washed with 5×100 μl reaction buffer by adding the solution and then pouring it out. After the fifth wash, the remaining solution was pulled through with vacuum.

[3] = target: T1, MutS; test: no detectable binding even with 200 ng; same buffer, 5 mM MgCl2, room temperature; conditions: tags: adsorbed on nitrocellulose (0.45 um, Schleicher & Schuell); perfect duplex
Experimental: as §1, §2, §3

B1: unlabeled beta-globin 30-mer G:T mismatch duplex (dsDNA)
DNA 1: GCACCTGACTCCTGGGGAGAAGTCTGCCGT
DNA 2: ACGGCAGACTTCTCCTCAGGAGTCAGGTGC
B1: binds [1].

B2: beta-globin 30-mer G:T mismatch duplex (dsDNA)
DNA 1: B1 DNA 1
DNA 2: B1 DNA 2
B2: binds [2].

B3: beta-globin 30-mer fully matched duplex (dsDNA)
DNA 1: B1 DNA 1
DNA 2: B1 DNA 2 with T16C
B3: no binding [3].
